Laboratory results reported in patent US20240150494A1.

Experiments:
[1] = target: G2-Rituximab (galactosylated afucosylated glycoform of rituximab) (human); test: SPR, 256 to 8 nM in 2-fold steps
[2] = target: G2F-Rituximab (galactosylated fucosylated glycoform of rituximab) (human); test: SPR, 256 to 8 nM in 2-fold steps

- KD1 [1]: 29.9 nM
- KD2 [1]: 2.3 nM
- KD1 [2]: 55.2 nM
- KD2 [2]: 2.29 nM
Substance: tetrameric FcγRIIIA (from UniProt P08637 17-208) (receptor)
